# Assays:
# [1] = target: T1, biotinylated hBLyS-ECD (human, UniProt Q9Y275 134-285, biotinylated with Biotin-X-X-NHS (molar ratio 7:1); sites not stated); assay: competitive ELISA on biotinylated hBLyS-ECD; competitor 2-1G11
# T1 construct: also called biotinylated immunogen; BLyS protein
# Procedure: The purified human BLyS antibody and hybridoma antibody were subjected to competitive enzyme-linked immunosorbent assay and the epitopes binding by different antibodies were analyzed.
# Purified BLyS antibody was first diluted to a final concentration of 1.0 μg/mL with PBS, then aliquoted into a 96-well ELISA plate at 50 μL per well, and the plate was subsequently sealed with plastic film and incubated at 4° C. overnight. On the next day the plate was rinsed four times with the plate washing buffer [PBS buffer containing 0.05% (v/v) Tween20] and mixed with blocking solution [PBS buffer containing 0.05% (v/v) Tween20 and 1% (w/w) BSA], and then blocked at 37° C. for 1 hour. The blocking solution was removed, and the competitive antibody and IgG control were diluted to a final concentration of 40 μg/mL with PBS and then aliquoted into the 96-well ELISA plate at 50 μL per well. The biotinylated hBLyS-ECD was then diluted with PBS to a final concentration of 2 ng/mL and pipetted into the 96-well ELISA plate at 50 μL per well. The final concentration of competitive antibody and hBLyS-ECD was 20 μg/mL and 1 ng/mL, respectively. After incubation at 37° C. for 1 hour, the plate was rinsed four times with the plate washing buffer [PBS buffer containing 0.05% (v/v) Tween20]. 100 μL per well of HRP-labeled (horseradish peroxidase) streptavidin (purchased from Sigma) was added into the plate and the plate was incubated at 37° C. for 1 hour. The plate was then washed four times with the plate washing buffer [PBS buffer containing 0.05% (v/v) Tween20]. 100 μL of TMB substrate was aliquoted into each well and after incubation at room temperature for 5 minutes, 100 μL of stop solution (1.0 N HCl) was aliquoted into each well. A₄₅₀ₙₘ values were read by an ELISA plate reader (SpectraMax M5e, purchased from Molecular Device) and the results were shown in Tables 18A-18B. […] The data shown in the table is the inhibitory rate (%) of the binding level of the original antibody to hBLyS-ECD after addition of the competitive antibody.
# [2] = target: T2, biotinylated hBLyS-ECD (human, UniProt Q9Y275 134-285, biotinylated with Biotin-X-X-NHS (molar ratio 7:1), sites not stated); assay: ELISA, biotinylated hBLyS-ECD captured on streptavidin; antibody 66.7 nM
# T2 construct: The hBLyS-ECD of Embodiment 1 after biotinylation (Embodiment 2); also called biotinylated immunogen; BLyS protein; not shown: His tag of the pCPC vector
# Procedure: (§1) Streptavidin was first diluted to a final concentration of 1.0 μg/mL with PBS, and then 50 μL of diluted streptavidin per well was aliquoted into 96-well ELISA plate, which was subsequently sealed with plastic film and incubated at 4° C. overnight. On the next day the plate was washed four times with the plate washing buffer [PBS buffer containing 0.05% (v/v) Tween20] and added with the blocking solution [PBS buffer containing 0.05% (v/v) Tween20 and 1% (w/w) BSA] and blocked for 2 hours at 37° C. The blocking solution was removed, the biotinylated hBLyS-ECD prepared in Embodiment 2 was diluted with PBS to a final concentration of 50 ng/mL and then aliquoted into the 96-well ELISA plate at 50 μL per well and incubated for 1 hour at 37° C. After rinsing the plate four times with the plate washing buffer [PBS buffer containing 0.05% (v/v) Tween20], 100 μl of the purified lead antibody harvested in Embodiment 1 and 2 was pipetted into each well. After incubation for 1 hour at 37° C., the plate was rinsed four times with the plate washing buffer [PBS buffer containing 0.05% (v/v) Tween20]. HRP-labeled (horseradish peroxidase) secondary antibody (purchased from Sigma) was added in and incubated at 37° C. for 1 hour. The plate was then rinsed four times with the plate washing buffer [PBS buffer containing 0.05% (v/v) Tween20]. 100 μL of TMB substrate was aliquoted into each well and after incubation for 5 minutes at room temperature, 100 μL of stop solution (1.0 N HCl) was aliquoted into each well. A₄₅₀ₙₘ values were read via an ELISA plate reader (SpectraMax M5e purchased from Molecular Devices) and the results were shown in FIGS. 5A-5B and Table 10.
# [3] = target: T2, biotinylated hBLyS-ECD; assay: ELISA, biotinylated hBLyS-ECD captured on streptavidin; antibody 0.0213 nM
# Procedure: as §1
# [4] = target: T2, biotinylated hBLyS-ECD; assay: ELISA, biotinylated hBLyS-ECD captured on streptavidin; antibody 0.534 nM
# Procedure: as §1
# [5] = target: T3, human BLyS (full length, arginine 132 mutated to histidine) on CHO-K1 cells (human, UniProt Q9Y275 1-285); assay: flow cytometry (FACS) on CHO-K1 hBLyS cells, Alexa 488 secondary antibody
# T3 construct: also called hBLyS; CHO-K1 hBLyS
# Procedure: The medium was aspirated completely, and the cells were rinsed once with PBS buffer (purchased from Invitrogen) and then treated with cell dispersion solution (TrypLE™ Express Enzyme, purchased from Life technology) and collected. The detailed steps are as follows: the cells were rinsed once with PBS buffer, after counting, the cells were diluted to 2×10⁶ cells/ml with PBS buffer, blocked with 2% (w/w) fetal bovine serum and incubated on ice for 30 minutes. 200 μL of which per well was aliquoted into a 96-well FACS plate and centrifuged at 2000 rpm at 4° C., then each 100 μL of the lead antibodies obtained from Embodiment 1 and 2 were aliquoted into each well and incubated on ice for 1 hour. […] After centrifuged and rinsed 3 times with FACS buffer, cells were suspended with 200 μL of FACS buffer and the results were detected and analyzed by FACS (FACS Calibur, purchased from BD). It was shown in Tables 12-13 that the lead antibody could bind to human BLyS protein on the cell surface and the lead antibody could cross-react with cynomolgus BLyS. The data in the table is MFI, the average fluorescence intensity of the cell population.
# [6] = target: T2, biotinylated hBLyS-ECD; assay: ELISA, biotinylated hBLyS-ECD captured on streptavidin; antibody 13.3 nM
# Procedure: as §1
# T3 sequence (Q9Y275 other isoform, or with tags, fused parts or gaps limits assumed, change not shown): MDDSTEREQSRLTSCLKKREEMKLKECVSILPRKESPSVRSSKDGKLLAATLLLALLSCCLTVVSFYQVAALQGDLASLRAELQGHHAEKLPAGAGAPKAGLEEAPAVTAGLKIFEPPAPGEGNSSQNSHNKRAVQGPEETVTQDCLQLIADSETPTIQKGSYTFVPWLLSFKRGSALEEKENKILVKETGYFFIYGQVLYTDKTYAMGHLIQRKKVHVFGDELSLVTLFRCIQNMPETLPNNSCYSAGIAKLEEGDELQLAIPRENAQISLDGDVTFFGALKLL
# T1 sequence (Q9Y275 134-285): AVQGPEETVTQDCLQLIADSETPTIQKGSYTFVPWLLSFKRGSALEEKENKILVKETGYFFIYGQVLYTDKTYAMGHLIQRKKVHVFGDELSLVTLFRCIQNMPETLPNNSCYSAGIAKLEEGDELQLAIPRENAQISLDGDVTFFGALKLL
# T2 sequence (Q9Y275 134-285): as above
Binder,inhibitory rate (%) [1] [%],OD450 nm [2],OD450 nm [3],OD450 nm [4],EC50 (read off the curve) [5] [nM],OD450 nm [6]
"2-1G11 (antibody, V domains shown, From a human naive scFv phage library; also called human BLyS antibody 2-1G11) VH: EVQLVESRGGVVQPGRSLRLSCAASGFTFSSYGMHWVRQAPGKGLEWVAVISYDGSNKYYADSVKGRFTISRDNSKNTLYLQMNSLRAEDAAVYYCARDRVDILTGYSIYGMDVWGQGTTVTVSS VL: EIVMTQSPATLSLSPGERATLSCRASQSVSSYLAWYQQKPGQAPRLLIYDASKRATGIPARFSGSGSGTDFTLTISSLEPEDFAVYYCQQRSNWPLTFGGGTKVEIK",82,,,,,
"L9G7 (antibody, V domains shown, From a human naive scFv phage library; also called human BLyS antibody L9G7) VH: QIQLVQSGAEVKKPGASVKVSCKASGYTFTSYGISWVRQAPGQGLEWMGWISAYNGNTNYAQKLQGRVTMTTDTSTSTAYMELRSLRSDDTAVYYCARTYYDILTGYYYYGMDVWGQGTTVTVSS VL: EIVLTQSPGTLSLSPGERATLSCRTSQSVDTYLAWYQQKPGQAPRLLIYDASNRATGIPARFSGSGSGTDFTLTISSLEPEDFAVYYCQQRSNWPLTFGGGTKVEIK",96,,,,,
"L1D12 (antibody, V domains shown, From a human naive scFv phage library; also called human BLyS antibody L1D12; LID12) VH: QVQLVQSGGGLVQPGGSLRLSCAASGFTVSSNYMSWVRQAPGKGLEWVSVIYSGGSTYYADSVKGRFTISRDNSKNTLYLQMNSLRAEDTAVYYCARGFHDILTGYGMDVWGQGTTVTVSS VL: SSELTQDPAVSVALGQTVRITCQGDSLRNYYAGWYQQKPGQAPVLVIYGKNNRPSGIPDRFSGSSSGNTASLTITGTQAEDEADYYCSSRDNSGTHLVEFGGGTKLTVL",94,,,,,
"97A3C2H4 (antibody, V domains shown, Mouse hybridoma antibody purified on Protein G) VH: EVKLVESGGGLVQPGGSLKLSCAASGFTFSTYTMSWVRQTPEKRLEWVAYISYGGGSTSYPDTVKGRFTISRDNAKNTLYLQMSSLKSEDTAIYYCTRHVTVVENSMDYWGQGTSVTVSS VL: DILLTQSPDILSVSPGERVSFSCRASQSIGTSIHWYQQRTNGSPRLLIKYVSESFSGTPSRFSGSGSGTAFTLTINSVESEDIADYYCQQTHSWPWTFGGGTKLEIK",,2.98,0.283,2.12,~0.3,2.82
"111D10D6G3 (antibody, V domains shown, Mouse hybridoma antibody purified on Protein G) VH: QVQLQQPGAELVKPGASVKMSCKASGYTFTRHWITWVKQRPGQGLEWIGDIFPGSGSINYNEKFKSEATLTVEKSSSTAYMQLSSLTSEDSAVYYCARGDVDVWGTGTTVTVSS VL: DIQMTQSPSSLSASLGERVSLTCRASQEIRGYLSWLQQKPNGTIKRLIYAASTLDSGVPKRFSATRSGSDFSLTISSLESEDFADYYCLQYASYPFTFGSGTKLEIK",,1.94,0.194,1.41,~0.1,1.78
"L9G7 (antibody, human IgG1, V domains shown) VH: QIQLVQSGAEVKKPGASVKVSCKASGYTFTSYGISWVRQAPGQGLEWMGWISAYNGNTNYAQKLQGRVTMTTDTSTSTAYMELRSLRSDDTAVYYCARTYYDILTGYYYYGMDVWGQGTTVTVSS VL: EIVLTQSPGTLSLSPGERATLSCRTSQSVDTYLAWYQQKPGQAPRLLIYDASNRATGIPARFSGSGSGTDFTLTISSLEPEDFAVYYCQQRSNWPLTFGGGTKVEIK",,1.81,0.181,1.35,~0.3,1.6
"L1D12 (antibody, human IgG1, V domains shown, also called LID12) VH: QVQLVQSGGGLVQPGGSLRLSCAASGFTVSSNYMSWVRQAPGKGLEWVSVIYSGGSTYYADSVKGRFTISRDNSKNTLYLQMNSLRAEDTAVYYCARGFHDILTGYGMDVWGQGTTVTVSS VL: SSELTQDPAVSVALGQTVRITCQGDSLRNYYAGWYQQKPGQAPVLVIYGKNNRPSGIPDRFSGSSSGNTASLTITGTQAEDEADYYCSSRDNSGTHLVEFGGGTKLTVL",,1.75,0.262,1.5,~0.2,1.61
